From patent publication US20260209324A1

Target: LFA-1 on immune cells (THP-1 cells, activated T cells) (human) (UniProt P20701)

“human recombinant EDIL3 (from UniProt O43854) (ligand)” was tested. Which adhesion of THP-1 cells on TNF-α stimulated TEC monolayers (% inhibition of adhesion) did it give?
Its adhesion of THP-1 cells on TNF-α stimulated TEC monolayers (% inhibition of adhesion) is 55.
